This note sets out measurements from patent US20230312710A1 (Hoffmann-La Roche, published 2023).

Experiment [1] deals with T1, monomeric human CD19 Fc(kih) fusion protein (human, UniProt P0DOX5 223-449 = IgG part).
T1 construct: Heterodimeric Fc fusion with a single copy of the CD19 ectodomain; Part of the preparation was biotinylated at the Avi tag; the SPR text speaks of 'purified monomeric CD19-Fc' as analyte without saying whether it was biotinylated; also called monomeric CD19-Fc; human CD19-Fc fusion protein
Put plainly: SPR ProteOn XPR36, Fab from bacterial supernatant captured by anti-human Fab, monomeric CD19-Fc as analyte. The protocol:
In order to further characterize the ELISA-positive clones, the off-rate was measured by surface plasmon resonance using a ProteOn XPR36 machine and compared with the parental humanized clone 8B8.
For this experiment, 7000 RU of polyclonal anti-human Fab antibody were immobilized on all 6 channels of a GLM chip by Amine coupling (NaAcetate pH4.5, 25 μl/min, 240 s) (vertical orientation). Each antibody-containing bacterial supernatant was filtered and 2-fold diluted with PBS, and then injected for 360 s at 25 μl/minute to achieve immobilization levels of between 100 and 400 response units (RU) in vertical orientation. Injection of monomeric CD19-Fc: For one-shot kinetics measurements, injection direction was changed to horizontal orientation, three-fold dilution series of purified monomeric CD19-Fc (varying concentration ranges between 150 and 6 nM) were injected simultaneously at 50 μl/min along separate channels 1-4, with association times of 180 s, and dissociation times of 300 s. […] Dissociation rate constants (koff) were calculated using a simple one-to-one Langmuir binding model in ProteOn Manager v3.1 software by simultaneously fitting the sensorgrams. […] Of note, the dissociation rate constants of clones 5A07 and 5B08 could not be determined due to inadequate fitting. […]

The target of experiment [2] is T2, human CD19 on WSU-DLCL2 cells (human, UniProt P15391 20-556).
T2 construct: Endogenous CD19 of the B-cell non-Hodgkin lymphoma line WSU-DLCL2; also called CD19+ WSU-DLCL2; human CD19-expressing tumor cells
T2 sequence: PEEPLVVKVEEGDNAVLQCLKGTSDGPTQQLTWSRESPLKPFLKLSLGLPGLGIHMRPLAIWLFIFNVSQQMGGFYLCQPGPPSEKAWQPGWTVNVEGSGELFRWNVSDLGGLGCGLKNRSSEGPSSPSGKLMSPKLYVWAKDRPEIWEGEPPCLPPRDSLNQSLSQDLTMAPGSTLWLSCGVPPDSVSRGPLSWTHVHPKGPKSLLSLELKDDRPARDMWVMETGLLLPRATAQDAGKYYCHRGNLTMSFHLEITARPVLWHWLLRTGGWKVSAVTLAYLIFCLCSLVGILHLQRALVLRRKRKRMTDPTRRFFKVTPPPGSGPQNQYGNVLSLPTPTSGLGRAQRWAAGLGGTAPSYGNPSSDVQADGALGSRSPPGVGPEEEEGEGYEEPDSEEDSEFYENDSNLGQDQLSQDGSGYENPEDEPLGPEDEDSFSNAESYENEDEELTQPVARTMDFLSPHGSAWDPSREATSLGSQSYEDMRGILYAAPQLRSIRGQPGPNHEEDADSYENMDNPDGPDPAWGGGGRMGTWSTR
Kind of experiment: flow cytometry on CD19+ WSU-DLCL2 cells, PE anti-human IgG F(ab')2 detection. The protocol:
0.1×10⁶ tumor cells resuspended in DPBS (Gibco by Life Technologies, Cat. No. 14190 326) were added to each well of a round-bottom suspension cell 96-well plate (greiner bio-one, cellstar, Cat. No. 650185). Cells were washed once with 200 μL DPBS. Cells were resuspended in 100 μL/well of 4° C. cold DPBS buffer containing 1:5000 diluted Fixable Viability Dye eFluor 660 (eBioscience, Cat. No. 65-0864-18) and plates were incubated for 30 minutes at 4° C. Cells were washed once with 200 μL/well 4° C. cold DPBS buffer and resuspended in 50 μL/well of 4° C. cold FACS buffer (DPBS supplied with 2% FBS, 5 mM EDTA pH8 (Amresco, Cat. No. E177) and 7.5 mM Sodium azide (Sigma-Aldrich S2002)) containing the CD19 binders at a series of concentrations, followed by incubation for 1 hour at 4° C. After extensive washing, cells were further stained with 50 μL/well of 4° C. cold FACS buffer containing 5 μg/mL PE-conjugated AffiniPure anti-human IgG F(ab′)2-fragment-specific goat F(ab′)2 fragment (Jackson ImmunoResearch, Cat. No. 109 116 098) for 30 minutes at 4° C. Cells were then washed twice with 200 μL/well 4° C. FACS buffer and cells were fixed in 50 μL/well DPBS containing 1% Formaldehyde (Sigma, HT501320-9.5L). Cells were resuspended in 100 μL/well FACS-buffer and acquired using the FACS LSR II (BD Biosciences). Data was analyzed using FlowJo V10 (FlowJo, LLC) and GraphPad Prism 6.04 (GraphPad Software, Inc).

The target in experiment [3] is T1, monomeric human CD19 Fc(kih) fusion …. Kind of experiment: SPR ProteOn XPR36, 25 C, IgG from HEK supernatant captured by anti-human Fab, monomeric CD19-Fc as analyte. The protocol:
The Affinity (KD) of the parental antibody 8B8 as well as it derivatives was measured by SPR using a ProteOn XPR36 instrument (Biorad) at 25° C. 7000 RU of polyclonal anti-human Fab antibody were immobilized on all 6 channels of a GLM chip by Amine coupling (NaAcetate pH4.5, 25 ul/min, 240 s) (vertical orientation). Each antibody-containing HEK supernatant was filtered, diluted with PBST (10 mM phosphate, 150 mM sodium chloride pH 7.4, 0.005% Tween 20) to a concentration of 10 ug/ml, and then injected at a for 360 s at 25 μl/minute to achieve immobilization levels between 500 and 800 response units (RU) in vertical orientation. Injection of monomeric CD19-Fc: For one-shot kinetics measurements, injection direction was changed to horizontal orientation, three-fold dilution series of purified monomeric CD19-Fc (varying concentration ranges between 150 and 6 nM) were injected simultaneously at 50 μl/min along separate channels 1-4, with association times of 180 s, and dissociation times of 300 s. A human IgG Fc fragment (150 nM) was injected in channel 5 as a negative control for specific binding to monomeric CD19-Fc. Buffer (PB ST) was injected along the sixth channel to provide an “in-line” blank for referencing. Regeneration was performed by two pulses of 10 mM glycine pH 1.5 and 50 mM NaOH for 30 s at 90 ul/min (vertical orientation). Association rate constants (kₒₙ) and dissociation rate constants (koff) were calculated using a simple one-to-one Langmuir binding model in ProteOn Manager v3.1 software by simultaneously fitting the association and dissociation sensorgrams. The equilibrium dissociation constant (KD) was calculated as the ratio koff/kₒₙ. The dissociation constant of all affinity-matured clones was improved compared to their parental clone 8B8.

B1: parental humanized anti-CD19 clone 8B8, Fab in bacterial supernatant (Fab, V domains shown)
VH: QVQLVQSGAEVKKPGASVKVSCKASGYTFTDYIMHWVRQAPGQGLEWMGYINPYNDGSKYTEKFQGRVTMTSDTSISTAYMELSRLRSDDTAVYYCARGTYYYGSALFDYWGQGTTVTVSS
VL: DIVMTQTPLSLSVTPGQPASISCKSSQSLENSNGNTYLNWYLQKPGQSPQLLIYRVSKRFSGVPDRFSGSGSGTDFTLKISRVEAEDVGVYYCLQLTHVPYTFGQGTKLEIK
notes: Soluble Fab expressed from the phagemid in bacterial supernatant (Flag-tagged); also called Parental 8B8; CD19 (8B8)
In the case of B1, the dissociation rate constant (koff) in experiment [1] was determined as 0.000301 s⁻¹.

B2: anti-CD19 clone 5B08 in P329GLALA human IgG1 format (antibody, V domains shown)
VH: QVQLVQSGAEVKKPGASVKVSCKASGYTFTDYIMHWVRQAPGQGLEWMGYINPYNDGSKYTEKFQGRVTMTSDTSISTAYMELSRLRSDDTAVYYCARGTYYYGPQLFDYWGQGTTVTVSS
VL: DIVMTQTPLSLSVTPGQPASISCKSSQSLETSTGNTYLNWYLQKPGQSPQLLIYRVSKRFSGVPDRFSGSGSGTDFTLKISRVEAEDVGVYYCLQLDSYPNTFGQGTKLEIKR
notes: also called CD19 (8B8-5B08)
Take B2: the EC50 in experiment [2] was found to be 14 pM.

B3: anti-CD19 clone 8B8 in P329GLALA human IgG1 format (antibody, V domains shown)
VH: QVQLVQSGAEVKKPGASVKVSCKASGYTFTDYIMHWVRQAPGQGLEWMGYINPYNDGSKYTEKFQGRVTMTSDTSISTAYMELSRLRSDDTAVYYCARGTYYYGSALFDYWGQGTTVTVSS
VL: DIVMTQTPLSLSVTPGQPASISCKSSQSLENSNGNTYLNWYLQKPGQSPQLLIYRVSKRFSGVPDRFSGSGSGTDFTLKISRVEAEDVGVYYCLQLTHVPYTFGQGTKLEIKR
notes: also called Parental 8B8; parental antibody 8B8
In experiment [3], B3 yielded a dissociation constant Kd of 2360 pM, an off-rate constant (koff) of 0.000134 s⁻¹ and a kon of 56600 M⁻¹ s⁻¹.

B4: anti-CD19 clone 2B11 in P329GLALA human IgG1 format (antibody, V domains shown)
VH: QVQLVQSGAEVKKPGASVKVSCKASGYTFTDYIMHWVRQAPGQGLEWMGYINPYNDGSKYTEKFQGRVTMTSDTSISTAYMELSRLRSDDTAVYYCARGTYYYGPQLFDYWGQGTTVTVSS
VL: DIVMTQTPLSLSVTPGQPASISCKSSQSLETSTGTTYLNWYLQKPGQSPQLLIYRVSKRFSGVPDRFSGSGSGTDFTLKISRVEAEDVGVYYCLQLLEDPYTFGQGTKLEIKR
notes: also called CD19 (8B8-2B11)
With B4, the half-maximal effective concentration (EC50) in experiment [2] worked out at 34 pM.

B5: anti-CD19 clone 2B03 in P329GLALA human IgG1 format (antibody, V domains shown)
VH: QVQLVQSGAEVKKPGASVKVSCKASGYTFTDYITHWVRQAPGQGLEWMGYINPYNDGSKYTEKFQGRVTMTSDTSISTAYMELSRLRSDDTAVYYCARGTYYYGPDLFDYWGQGTTVTVSS
VL: DIVMTQTPLSLSVTPGQPASISCKSSQSLETSTGNTYLNWYLQKPGQSPQLLIYRVSKRFSGVPDRFSGSGSGTDFTLKISRVEAEDVGVYYCLQLTHVPYTFGQGTKLEIKR
notes: also called CD19 (8B8-2B03)
The molecule B5 had an EC50 in experiment [2] of 41 pM.

B6: anti-CD19 clone 5H09 in P329GLALA human IgG1 format (antibody, V domains shown)
VH: QVQLVQSGAEVKKPGASVKVSCKASGYTFTDYIMHWVRQAPGQGLEWMGYINPYNDGSKYTEKFQGRVTMTSDTSISTAYMELSRLRSDDTAVYYCARGTYYYGSALFDYWGQGTTVTVSS
VL: DIVMTQTPLSLSVTPGQPASISCKSSQSLESSTGNTYLNWYLQKPGQSPQLLIYRVSKRFSGVPDRFSGSGSGTDFTLKISRVEAEDVGVYYCLQLIDYPVTFGQGTKLEIKR
notes: also called CD19 (8B8-5H09)
As for B6, in experiment [2], it took 20 pM to reach a half-maximal effect (EC50).

B7: anti-CD19 clone 7H07 in P329GLALA human IgG1 format (antibody, V domains shown)
VH: QVQLVQSGAEVKKPGASVKVSCKASGYTFTDYIMHWVRQAPGQGLEWMGYINPYNDGSKYTEKFQGRVTMTSDTSISTAYMELSRLRSDDTAVYYCARGTYYYGSELFDYWGQGTTVTVSS
VL: DIVMTQTPLSLSVTPGQPASISCKSSQSLETSTGNTYLNWYLQKPGQSPQLLIYRVSKRFSGVPDRFSGSGSGTDFTLKISRVEAEDVGVYYCLQATHIPYTFGQGTKLEIKR
notes: also called CD19 (8B8-7H07)
Take B7: in experiment [2], a half-maximal effect (EC50) was put at 34 pM.

What is called koff is the rate constant with which the complex falls apart. Read a high koff as a short-lived complex. In general, EC50 refers to the concentration at which the effect is half-maximal. A lower EC50 goes with greater potency. In general, Kd refers to a measure of binding affinity in units of concentration. High values mean weaker binding, low ones tighter binding. As a reminder, the kon is the second-order rate constant of association. Read a low kon as slower complex formation.
